Sequences and labels used below:
B1: Spacer of UHRF1 (residues 587–674) (domain or fragment)
chain: PGPWTKEGKDRIKKLGLTMQYPEGYLEALANREREKENSKREEEEQQEGGFASPRTGKGKWKRKSAGGGPSRAGSPRRTSKKTKVEPY
B2: TTD of UHRF1 (residues 134–285) (domain or fragment)
chain: LYKVNEYVDARDTNMGAWFEAQVVRVTRKAPSRDEPCSSTSRPALEEDVIYHVKYDDYPENGVVQMNSRDVRARARTIIKWQDLEVGQVVMLNYNPDNPKERGFWYDAEISRKRETRTARELYANVVLGDDSLNDCRIIFVDEVFKIERPGE

Non-standard residues stand in square brackets, D forms with d. No end group written: not given here. pS = N[C@@H](COP(=O)(O)O)C(=O)O

Test [1] deals with B2. Kind of test: ITC. (Isothermal titration calorimetry measures the heat released or taken up as one component is titrated into another.)
In test [2] the target is B2. As to the kind of experiment: ITC; in presence of Linker.
The target in test [3] is B2. As to the kind of experiment: ITC; in presence of Linker (TTD:Linker 1:2).
A further test addresses T1, Spacer S639D (human, UniProt Q96T88 587-674, S639D).
T1 sequence: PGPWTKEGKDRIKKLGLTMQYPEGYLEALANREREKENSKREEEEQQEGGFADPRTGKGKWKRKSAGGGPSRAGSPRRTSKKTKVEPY
Kind of test: ITC.

The next test addresses T2, Spacer R649A (human, UniProt Q96T88 587-674, R649A).
T2 sequence: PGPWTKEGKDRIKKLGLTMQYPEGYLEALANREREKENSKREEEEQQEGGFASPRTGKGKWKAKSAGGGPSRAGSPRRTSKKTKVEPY
As to the kind of experiment: ITC.

The target of a further test is T3, Spacer S651D (human, UniProt Q96T88 587-674, S651D).
T3 sequence: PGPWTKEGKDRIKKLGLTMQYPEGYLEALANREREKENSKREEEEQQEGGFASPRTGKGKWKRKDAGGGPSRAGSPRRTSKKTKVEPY
Kind of test: ITC.

The target of another test is T4, Spacer S666D (human, UniProt Q96T88 587-674, S666D).
T4 sequence: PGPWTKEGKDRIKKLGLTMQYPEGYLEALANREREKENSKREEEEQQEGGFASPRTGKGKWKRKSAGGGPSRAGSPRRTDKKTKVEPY
Kind of test: ITC.

The target in a further test is T5, Spacer K648D (human, UniProt Q96T88 587-674, K648D).
T5 sequence: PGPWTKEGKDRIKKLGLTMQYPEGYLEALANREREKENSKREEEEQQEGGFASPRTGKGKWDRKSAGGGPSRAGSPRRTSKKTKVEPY
As to the kind of experiment: ITC.

The next test deals with T6, Spacer^Δ670–674 (human, UniProt Q96T88 587-674, Δ670–674).
T6 sequence: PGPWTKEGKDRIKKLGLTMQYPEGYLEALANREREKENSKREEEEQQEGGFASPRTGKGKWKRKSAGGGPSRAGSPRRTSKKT
Kind of test: ITC.

The target in another test is T7, Spacer^Δ665–669 (human, UniProt Q96T88 587-674, Δ665–669).
T7 sequence: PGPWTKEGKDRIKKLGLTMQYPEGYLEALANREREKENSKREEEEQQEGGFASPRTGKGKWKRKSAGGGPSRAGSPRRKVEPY
Kind of test: ITC.

A further test has as its target T8, Spacer^Δ660–664 (human, UniProt Q96T88 587-674, Δ660–664).
T8 sequence: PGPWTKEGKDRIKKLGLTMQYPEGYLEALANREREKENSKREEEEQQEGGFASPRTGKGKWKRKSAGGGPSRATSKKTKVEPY
As to the kind of experiment: ITC.

Another test addresses T9, Spacer^Δ642–651 (human, UniProt Q96T88 587-674, Δ642–651).
T9 sequence: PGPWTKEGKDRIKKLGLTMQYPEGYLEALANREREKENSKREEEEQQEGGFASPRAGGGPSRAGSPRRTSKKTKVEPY
As to the kind of experiment: ITC.

The next test has as its target T10, Spacer^Δ650–654 (human, UniProt Q96T88 587-674, Δ650–654).
T10 sequence: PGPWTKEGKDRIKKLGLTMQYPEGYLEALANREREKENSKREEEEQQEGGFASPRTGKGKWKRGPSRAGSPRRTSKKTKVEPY
As to the kind of experiment: ITC.

For another test, the target named is T11, Spacer^Δ655–659 (human, UniProt Q96T88 587-674, Δ655–659).
T11 sequence: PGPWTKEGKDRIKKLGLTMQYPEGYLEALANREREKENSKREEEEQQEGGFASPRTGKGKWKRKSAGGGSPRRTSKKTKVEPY
As to the kind of experiment: ITC.

Test [4] concerns the target T12, SRA–Spacer of UHRF1 (residues 414–674) (human, UniProt Q96T88 414-674).
T12 chain: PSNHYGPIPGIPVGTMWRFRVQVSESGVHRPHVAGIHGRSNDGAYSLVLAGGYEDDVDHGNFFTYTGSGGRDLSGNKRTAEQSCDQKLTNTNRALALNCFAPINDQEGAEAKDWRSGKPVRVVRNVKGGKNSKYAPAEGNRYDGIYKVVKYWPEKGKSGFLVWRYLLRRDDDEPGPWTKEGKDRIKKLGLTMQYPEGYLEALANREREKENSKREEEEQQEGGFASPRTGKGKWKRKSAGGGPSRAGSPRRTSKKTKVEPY
Kind of test: ITC; in presence of hm-DNA (1:2).

For test [5], the target named is B1. As to the kind of experiment: ITC; in presence of hm-DNA (1:2).
In test [6] the target is T12, SRA–Spacer of UHRF1 (residues 414–674). As to the kind of experiment: ITC.
Test [7] deals with B1. As to the kind of experiment: ITC.
Test [8] has as its target B2. As to the kind of experiment: ITC; phosphorylated S651.

Broadly, the Kd is the free concentration of one partner at which half of the binding sites on the other are occupied at equilibrium, for simple one-to-one binding. Take TGKGKWKRKSAGGGPSRAGSPRRTSKKTKVEPY (domain or fragment) [Spacer^642–674]: in test [1], binding was put at a Kd of 970 nM.
As to B1, the dissociation constant (Kd) in test [2] and in [3] was 3730 nM in each case.
As for B2, the Kd in the test with Spacer S639D was determined as 1150 nM; with Spacer R649A, 21400 nM; with Spacer S651D it was 8810 nM; with Spacer S666D it was 1260 nM; in the test with Spacer K648D, 5940 nM; with Spacer^Δ670–674, 950 nM. Besides, the dissociation constant (Kd) with Spacer^Δ665–669 turned out to be 1850 nM; with Spacer^Δ660–664, 2470 nM; with Spacer^Δ642–651 it was 11200 nM; with Spacer^Δ650–654, 3800 nM; in the test with Spacer^Δ655–659, 2980 nM; in test [4], 143000 nM. The Kd in test [5] stood at 2040 nM; in test [6], 820 nM; in [7] it was 2340 nM.
The molecule TGKGKWKRKSAGGGPSRAGSPRR [unmodified peptide of Spacer^642–664] yielded a Kd in test [1] of 1260 nM.
In test [8], TGKGKWKRK[pS]AGGGPSRAGSPRR [peptide of Spacer^642–664 phosphorylated at S651] displayed a Kd of 27800 nM.
